Results published in publication PMC5443773 (Scientific Reports, 2017).

Molecular target: the molecule itself
Test: crystal structure

B1: El Tor cholera toxin B-pentamer (natural protein)
chain: TPQNITDLCAEYHNTQIYTLNDKIFSYTESLAGKREMAIITFKNGAIFQVEVPGSQHIDSQKKAIERMKDTLRIAYLTEAKVEKLCVWNNKTPHAIAAISMAN
B1 was tested, and the “stoichiometry N” value was 5.
